{"source": "the supplement of paper PMC10567573", "parents": {"B1": {"name": "TBC1D10A (parent)", "chain": "WCLVQICEKYLPGYYSEKLEAIQL"}, "B2": {"name": "RAB22A (parent)", "chain": "FVEDSFDPNINPTIGASFMTKTVQ"}}, "data": [{"variants_of": "B1", "assay": "protein stability index of a GFP-peptide fusion (GPS, HEK-293T) (PSI 1-6); higher = more stable", "conditions": "c terminus: a fixed tail appended", "values": [{"variant": "WPLVQICEKYLPGYYSEKLEAIQL", "note": "[C2P]", "protein stability index": 1.86}, {"variant": "WRLVQICEKYLPGYYSEKLEAIQL", "note": "[C2R]", "protein stability index": 3.28}, {"variant": "WCLVQICMKYLPGYYSEKLEAIQL", "note": "[E8M]", "protein stability index": 2.81}, {"variant": "WCLVQICLKYLPGYYSEKLEAIQL", "note": "[E8L]", "protein stability index": 4.41}, {"variant": "WCLVQICYKYLPGYYSEKLEAIQL", "note": "[E8Y]", "protein stability index": 3.51}, {"variant": "WCLVQICEKYLPGYYSEVLEAIQL", "note": "[K18V]", "protein stability index": 3.17}, {"variant": "WCLVQICEKYLPGYYSECLEAIQL", "note": "[K18C]", "protein stability index": 3.08}, {"variant": "WCLVQICEKYLPGYYSEMLEAIQL", "note": "[K18M]", "protein stability index": 2.98}, {"variant": "WCLVQICEKYLPGYYSETLEAIQL", "note": "[K18T]", "protein stability index": 2}, {"variant": "WCLVQICEKYLPGYYSELLEAIQL", "note": "[K18L]", "protein stability index": 1.83}, {"variant": "WCMVQICEKYLPGYYSEKLEAIQL", "note": "[L3M]", "protein stability index": 2.45}, {"variant": "WCHVQICEKYLPGYYSEKLEAIQL", "note": "[L3H]", "protein stability index": 1.87}, {"variant": "WCLVQICEKYSPGYYSEKLEAIQL", "note": "[L11S]", "protein stability index": 2.68}, {"variant": "WCLVQICEKYEPGYYSEKLEAIQL", "note": "[L11E]", "protein stability index": 2.65}, {"variant": "QCLVQICEKYLPGYYSEKLEAIQL", "note": "[W1Q]", "protein stability index": 1.07}, {"variant": "WCLVSICEKYLPGYYSEKLEAIQL", "note": "[Q5S]", "protein stability index": 2.72}, {"variant": "WCLVKICEKYLPGYYSEKLEAIQL", "note": "[Q5K]", "protein stability index": 1.71}, {"variant": "WCLVQICEKYLPGYYSKKLEAIQL", "note": "[E17K]", "protein stability index": 1.66}, {"variant": "WCLVQICEKYLPGYYSIKLEAIQL", "note": "[E17I]", "protein stability index": 2.74}, {"variant": "WCLVQICEKYLPAYYSEKLEAIQL", "note": "[G13A]", "protein stability index": 3.16}, {"variant": "WCLVQICEKYLPGYYSEKLEAITL", "note": "[Q23T]", "protein stability index": 5.09}, {"variant": "WCLVQICEKYLPGYYSEKLEAIIL", "note": "[Q23I]", "protein stability index": 3.3}, {"variant": "WCLVQICEKYLPGYYSEKLEAEQL", "note": "[I22E]", "protein stability index": 3.23}, {"variant": "WCLVQICEKYLPGYYSEKLEAGQL", "note": "[I22G]", "protein stability index": 2.35}, {"variant": "WCLVQICEKYLPGYYSEKLEAVQL", "note": "[I22V]", "protein stability index": 3.09}, {"variant": "WCLVQICEKKLPGYYSEKLEAIQL", "note": "[Y10K]", "protein stability index": 2.62}, {"variant": "WCLVQICEKYLPGYYYEKLEAIQL", "note": "[S16Y]", "protein stability index": 2.7}, {"variant": "WCLVQICEKYLPGYYWEKLEAIQL", "note": "[S16W]", "protein stability index": 3.94}, {"variant": "WCLVQICECYLPGYYSEKLEAIQL", "note": "[K9C]", "protein stability index": 4.4}, {"variant": "WCLVQICEFYLPGYYSEKLEAIQL", "note": "[K9F]", "protein stability index": 3.33}, {"variant": "WCLNQICEKYLPGYYSEKLEAIQL", "note": "[V4N]", "protein stability index": 1.57}, {"variant": "WCLEQICEKYLPGYYSEKLEAIQL", "note": "[V4E]", "protein stability index": 2.09}, {"variant": "WCLVQPCEKYLPGYYSEKLEAIQL", "note": "[I6P]", "protein stability index": 2.45}, {"variant": "WCLVQICEKYLKGYYSEKLEAIQL", "note": "[P12K]", "protein stability index": 2.12}, {"variant": "WCLVQICEKYLNGYYSEKLEAIQL", "note": "[P12N]", "protein stability index": 4.27}, {"variant": "WCLVQICEKYLPGYYSEKLIAIQL", "note": "[E20I]", "protein stability index": 2.3}, {"variant": "WCLVQICEKYLPGYYSEKLRAIQL", "note": "[E20R]", "protein stability index": 1.8}, {"variant": "WCLVQICEKYLPGYYSEKLHAIQL", "note": "[E20H]", "protein stability index": 3.07}, {"variant": "WCLVQICEKYLPGYYSEKLEHIQL", "note": "[A21H]", "protein stability index": 3.56}, {"variant": "WCLVQICEKYLPGYYSEKLEEIQL", "note": "[A21E]", "protein stability index": 3.38}, {"variant": "WCLVQICEKYLPGVYSEKLEAIQL", "note": "[Y14V]", "protein stability index": 3.94}, {"variant": "WCLVQICEKYLPGEYSEKLEAIQL", "note": "[Y14E]", "protein stability index": 1.59}, {"variant": "WCLVQINEKYLPGYYSEKLEAIQL", "note": "[C7N]", "protein stability index": 3.08}]}, {"variants_of": "B2", "assay": "protein stability index of a GFP-peptide fusion (GPS, HEK-293T) (PSI 1-6); higher = more stable", "conditions": "c terminus: a fixed tail appended", "values": [{"variant": "FVEDSFDPNINPTIGASFMTKTHQ", "note": "[V23H]", "protein stability index": 2.5}, {"variant": "FVEDSFDPNINPTIGASFMTKTCQ", "note": "[V23C]", "protein stability index": 2.37}, {"variant": "FVEDSFDPNINPTIGASFMTKTSQ", "note": "[V23S]", "protein stability index": 2.66}, {"variant": "FVEDSFDPNINPTIGASFMTKTKQ", "note": "[V23K]", "protein stability index": 2.26}, {"variant": "FVEDSFDPNINPTIGASFMTKTWQ", "note": "[V23W]", "protein stability index": 2.5}, {"variant": "FVEDSFDPNINPTIGASFMTKTIQ", "note": "[V23I]", "protein stability index": 2.37}, {"variant": "FVEDSFDPNINPTIGASFMTKTEQ", "note": "[V23E]", "protein stability index": 3.24}, {"variant": "FVEDSFDPNINPTIGASFMTKTQQ", "note": "[V23Q]", "protein stability index": 2.39}, {"variant": "FVEDSFDPNINPTIGASFMTKTAQ", "note": "[V23A]", "protein stability index": 2.43}, {"variant": "FVEDSFDPNINPTIGASFMTKTTQ", "note": "[V23T]", "protein stability index": 2.78}, {"variant": "FVEDSFDPNINPTIGASFMTKTNQ", "note": "[V23N]", "protein stability index": 2.44}, {"variant": "FVEDSFDPNINPTIGASFMTKTRQ", "note": "[V23R]", "protein stability index": 1.89}, {"variant": "FVEDSFDPNINPTIGASFMTKTDQ", "note": "[V23D]", "protein stability index": 2.76}, {"variant": "FVEDSFDPNINPTIGASFMTKTLQ", "note": "[V23L]", "protein stability index": 2.93}, {"variant": "FVEDSFDPNINPTIGASFMTKTMQ", "note": "[V23M]", "protein stability index": 1.98}, {"variant": "FVEDSFDPNINPTIGASFMTKTYQ", "note": "[V23Y]", "protein stability index": 2.52}, {"variant": "FVEDSFDPNINPTIGASFMTKTPQ", "note": "[V23P]", "protein stability index": 2.94}, {"variant": "FVEDSFDPNINPTIGASFMTKTGQ", "note": "[V23G]", "protein stability index": 2.56}, {"variant": "FVEDSFDPNINPTIGASFMTKTFQ", "note": "[V23F]", "protein stability index": 1.79}, {"variant": "FVEDSFDPNINPTIGASFMTKTVL", "note": "[Q24L]", "protein stability index": 2.19}, {"variant": "FVEDSFDPNINPTIGASFMTKTVE", "note": "[Q24E]", "protein stability index": 2.91}, {"variant": "FVEDSFDPNINPTIGASFMTKTVI", "note": "[Q24I]", "protein stability index": 1.55}, {"variant": "FVEDSFDPNINPTIGASFMTKTVV", "note": "[Q24V]", "protein stability index": 2.24}, {"variant": "FVEDSFDPNINPTIGASFMTKTVM", "note": "[Q24M]", "protein stability index": 1.71}, {"variant": "FVEDSFDPNINPTIGASFMTKTVP", "note": "[Q24P]", "protein stability index": 2.45}, {"variant": "FVEDSFDPNINPTIGASFMTKTVF", "note": "[Q24F]", "protein stability index": 1.49}, {"variant": "FVEDSFDPNINPTIGASFMTKTVT", "note": "[Q24T]", "protein stability index": 2.01}, {"variant": "FVEDSFDPNINPTIGASFMTKTVH", "note": "[Q24H]", "protein stability index": 2.1}, {"variant": "FVEDSFDPNINPTIGASFMTKTVN", "note": "[Q24N]", "protein stability index": 2.28}, {"variant": "FVEDSFDPNINPTIGASFMTKTVA", "note": "[Q24A]", "protein stability index": 2.11}, {"variant": "FVEDSFDPNINPTIGASFMTKTVY", "note": "[Q24Y]", "protein stability index": 2.98}, {"variant": "FVEDSFDPNINPTIGASFMTKTVK", "note": "[Q24K]", "protein stability index": 2.15}, {"variant": "FVEDSFDPNINPTIGASFMTKTVD", "note": "[Q24D]", "protein stability index": 2.56}, {"variant": "FVEDSFDPNINPTIGASFMTKTVS", "note": "[Q24S]", "protein stability index": 2.82}, {"variant": "FVEDSFDPNINPTIGASFMTKTVG", "note": "[Q24G]", "protein stability index": 2.22}, {"variant": "FVEDSFDPNINPTIGASFMTKTVR", "note": "[Q24R]", "protein stability index": 2.38}, {"variant": "FVEDSFDPNINPTIGASFMTKTVC", "note": "[Q24C]", "protein stability index": 1.89}, {"variant": "FVEDSFDPNINPTIGASFMTKYVQ", "note": "[T22Y]", "protein stability index": 1.73}, {"variant": "FVEDSFDPNINPTIGASFMTKRVQ", "note": "[T22R]", "protein stability index": 2.34}, {"variant": "FVEDSFDPNINPTIGASFMTKIVQ", "note": "[T22I]", "protein stability index": 1.6}, {"variant": "FVEDSFDPNINPTIGASFMTKMVQ", "note": "[T22M]", "protein stability index": 2.11}, {"variant": "FVEDSFDPNINPTIGASFMTKQVQ", "note": "[T22Q]", "protein stability index": 2.45}, {"variant": "FVEDSFDPNINPTIGASFMTKGVQ", "note": "[T22G]", "protein stability index": 2.25}, {"variant": "FVEDSFDPNINPTIGASFMTKHVQ", "note": "[T22H]", "protein stability index": 2.09}, {"variant": "FVEDSFDPNINPTIGASFMTKPVQ", "note": "[T22P]", "protein stability index": 2.75}, {"variant": "FVEDSFDPNINPTIGASFMTKKVQ", "note": "[T22K]", "protein stability index": 2.77}, {"variant": "FVEDSFDPNINPTIGASFMTKNVQ", "note": "[T22N]", "protein stability index": 2.25}, {"variant": "FVEDSFDPNINPTIGASFMTKVVQ", "note": "[T22V]", "protein stability index": 2.2}, {"variant": "FVEDSFDPNINPTIGASFMTKWVQ", "note": "[T22W]", "protein stability index": 1.23}, {"variant": "FVEDSFDPNINPTIGASFMTKLVQ", "note": "[T22L]", "protein stability index": 1.78}, {"variant": "FVEDSFDPNINPTIGASFMTKSVQ", "note": "[T22S]", "protein stability index": 2.26}]}]}
